Patent US20060263345A1, “Butyrylcholinesterase variant polypeptides with increased catalytic efficiency and methods of use” (priority 2003, published 2006)
Residue numbers refer to the chain shown, from its start. Names may count otherwise. “Also recorded” adds a separate entry of the source.

B1: Y332S (protein)
chain: EDDIIIATKNGKVRGMNLTVFGGTVTAFLGIPYAQPPLGRLRFKKPQSLTKWSDIWNATKYANSCCQNIDQSFPGFHGSEMWNPNTDLSEDCLYLNVWIPAPKPKNATVLIWIYGGGFQTGTSSLHVYDGKFLARVERVIVVSMNYRVGALGFLALPGNPEAPGNMGLFDQQLALQWVQKNIAAFGGNPKSVTLFGESAGAASVSLHLLSPGSHSLFTRAILQSGSFNAPWAVTSLYEARNRTLNLAKLTGCSRENETEIIKCLRNKDPQEILLNEAFVVPYGTPLSVNFGPTVDGDFLTDMPDILLELGQFKKTQILVGVNKDEGTAFLVSGAPGFSKDNNSIITRKEFQEGLKIFFPGVSEFGKESILFHYTDWVDDQRPENYREALGDVVGDYNFICPALEFTKKFSEWGNNAFFYYFEHRSSKLPWPEWMGVMHGYEIEFVFGLPLERRDNYTKAEEILSRSIVKRWANFAKYGNPNETQNNSTSWPVFKSTEQKYLTLNTESTRIMTKLRAQQCRFWTSFFPKVLEMTGNIDEAEWEWKAGFHRWNNYMMDWKNQFNDYTSKKESCVGL
modifications: Butyrylcholinesterase variant
B2: A328W/Y332S (protein)
chain: B1 chain with A328W
modifications: Butyrylcholinesterase variant
B3: Y332P (protein)
chain: B1 chain with S332P
modifications: Butyrylcholinesterase variant
B4: A328W/S287G/A199S (protein)
chain: B1 chain with A199S, S287G, A328W, S332Y
modifications: Butyrylcholinesterase variant
B5: Y332M (protein)
chain: B1 chain with S332M
modifications: Butyrylcholinesterase variant
B6: F227M (protein)
chain: B1 chain with F227M, S332Y
modifications: Butyrylcholinesterase variant
B7: A328W/Y332M (protein)
chain: B1 chain with A328W, S332M
modifications: Butyrylcholinesterase variant
B8: F227P (protein)
chain: B1 chain with F227P, S332Y
modifications: Butyrylcholinesterase variant
B9: F227S (protein)
chain: B1 chain with F227S, S332Y
modifications: Butyrylcholinesterase variant
B10: F227C (protein)
chain: B1 chain with F227C, S332Y
modifications: Butyrylcholinesterase variant
B11: F227A (protein)
chain: B1 chain with F227A, S332Y
modifications: Butyrylcholinesterase variant
B12: V331L (protein)
chain: B1 chain with V331L, S332Y
modifications: Butyrylcholinesterase variant
B13: A328W/Y332M/S287G/F227A/A199S (protein)
chain: B1 chain with A199S, F227A, S287G, A328W, S332M
modifications: Butyrylcholinesterase variant
B14: A328W/V331L (protein)
chain: B1 chain with A328W, V331L, S332Y
modifications: Butyrylcholinesterase variant
B15: A199S (protein)
chain: B1 chain with A199S, S332Y
modifications: Butyrylcholinesterase variant
B16: A328W/S287G/F227A (protein)
chain: B1 chain with F227A, S287G, A328W, S332Y
modifications: Butyrylcholinesterase variant
B17: A328W/Y332P (protein)
chain: B1 chain with A328W, S332P
modifications: Butyrylcholinesterase variant
B18: F227T (protein)
chain: B1 chain with F227T, S332Y
modifications: Butyrylcholinesterase variant
B19: A328W/S287G/F227A/A199S (protein)
chain: B1 chain with A199S, F227A, S287G, A328W, S332Y
modifications: Butyrylcholinesterase variant
B20: F227G (protein)
chain: B1 chain with F227G, S332Y
modifications: Butyrylcholinesterase variant

Assay: microtiter isotope tracer [3H]-cocaine hydrolysis assay of immobilized butyrylcholinesterase variants
Type: biochemical
Settings: compared to human butyrylcholinesterase
Source text: At the conclusion of the isotope tracer assay, an aliquot of the reaction mix is acidified in order to take advantage of the solubility difference between the product and the substrate at pH 3.0. […] Prospect, Ill.) while [3H]-cocaine is not.
The supernatants isolated from each of the butyrylcholinesterase variant library clones contains variable butyrylcholinesterase enzyme concentrations.
At least three approaches are used to either increase the assay sensitivity or the assay signal.
Km values for (−)-cocaine are determined at 37° C. Vmax and Km values are calculated using Sigma Plot (Jandel Scientific, San Rafael, Calif.). The number of active sites of butyrylcholinesterase is determined by the method of residual activity using echothiopate iodide or diisopropyl fluorophosphates as titrants, as described previously by Masson et al., Biochemistry 36: 2266-2277 (1997). […] Purified human butyrylcholinesterase is used as the standard for the ELISA quantitation assay. The catalytic rate constant, kcat, is calculated by dividing Vmax by the concentration of active sites.

Molecule | cocaine hydrolysis activity compared to butyrylcholinesterase (in words)
B1 | increased cocaine hydrolysis activity
B2 | enhanced cocaine hydrolase activity
B3 | enhanced cocaine hydrolase activity; also recorded: increased cocaine hydrolysis activity
B4 | enhanced cocaine hydrolase activity
B5 | enhanced cocaine hydrolase activity; also recorded: increased cocaine hydrolysis activity
B6 | enhanced cocaine hydrolase activity
B7 | enhanced cocaine hydrolase activity
B8 | enhanced cocaine hydrolase activity
B9 | enhanced cocaine hydrolase activity
B10 | enhanced cocaine hydrolase activity
B11 | enhanced cocaine hydrolase activity
B12 | enhanced cocaine hydrolase activity; also recorded: increased cocaine hydrolysis activity
B13 | enhanced cocaine hydrolase activity
B14 | enhanced cocaine hydrolase activity
B15 | enhanced cocaine hydrolase activity
B16 | enhanced cocaine hydrolase activity
B17 | enhanced cocaine hydrolase activity
B18 | enhanced cocaine hydrolase activity
B19 | enhanced cocaine hydrolase activity
B20 | enhanced cocaine hydrolase activity

Same assay, conditions: compared to human butyrylcholinesterase SEQ ID NO: 44; approximate values

Molecule | increase in cocaine hydrolysis activity relative to butyrylcholinesterase
B2 | seven
B4 | ninety-seven
B6 | one-and-a-half
B7 | twenty-four
B8 | three
B9 | two
B10 | two
B11 | four
B13 | one-hundred
B14 | sixteen
B15 | two-and-a-half
B16 | ninety-one
B17 | ten
B18 | two
B19 | one-hundred
B20 | four

Same assay, conditions: compared to human butyrylcholinesterase SEQ ID NO: 44; approximate values; listed as SEQ ID NO: 8

Molecule | increase in cocaine hydrolysis activity relative to butyrylcholinesterase
B2 | eight

Same assay, conditions: compared to human butyrylcholinesterase; listed as SEQ ID NO: 20

Molecule | cocaine hydrolysis activity compared to butyrylcholinesterase (in words)
B1 | increased cocaine hydrolysis activity

Same assay, conditions: compared to human butyrylcholinesterase; listed as SEQ ID NO: 22

Molecule | cocaine hydrolysis activity compared to butyrylcholinesterase (in words)
B5 | increased cocaine hydrolysis activity

Same assay, conditions: compared to human butyrylcholinesterase; listed as SEQ ID NO: 24

Molecule | cocaine hydrolysis activity compared to butyrylcholinesterase (in words)
B3 | increased cocaine hydrolysis activity

Same assay, conditions: compared to human butyrylcholinesterase; listed as SEQ ID NO: 26

Molecule | cocaine hydrolysis activity compared to butyrylcholinesterase (in words)
B12 | increased cocaine hydrolysis activity

Same assay, conditions: compared to human butyrylcholinesterase; listed as Y322S

Molecule | cocaine hydrolysis activity compared to butyrylcholinesterase (in words)
B1 | enhanced cocaine hydrolase activity

Same assay, conditions: relative to wild-type = 1; catalytic efficiency (Vmax/Km), [3H]-cocaine microtiter assay

Molecule | Relative Activity of butyrylcholinesterase variants (WT = 1) with enhanced cocaine hydrolase activity
B2 | 8
B4 | 97
B6 | 1.4
B7 | 24
B8 | 2.9
B9 | 2.3
B10 | 1.9
B11 | 4.1
B13 | 100
B14 | 16
B15 | 2.5
B16 | 91
B17 | 10
B18 | 1.9
B19 | 100
B20 | 4.0
